The values below come from patent publication US9658208B2, “Methods and G proteins for screening and identifying ligands of G protein-coupled receptors” (Fred Hutchinson Cancer Research Center, priority 2011, dated 2017).

Experiment [1] addresses T1, M2AchR (Rattus norvegicus, UniProt P10980).
T1 construct: expressed in transfected cells; host or cells: HEK-293 (chimera stably or transiently expressed; M2AchR transiently transfected)
T1 sequence (P10980 1-466): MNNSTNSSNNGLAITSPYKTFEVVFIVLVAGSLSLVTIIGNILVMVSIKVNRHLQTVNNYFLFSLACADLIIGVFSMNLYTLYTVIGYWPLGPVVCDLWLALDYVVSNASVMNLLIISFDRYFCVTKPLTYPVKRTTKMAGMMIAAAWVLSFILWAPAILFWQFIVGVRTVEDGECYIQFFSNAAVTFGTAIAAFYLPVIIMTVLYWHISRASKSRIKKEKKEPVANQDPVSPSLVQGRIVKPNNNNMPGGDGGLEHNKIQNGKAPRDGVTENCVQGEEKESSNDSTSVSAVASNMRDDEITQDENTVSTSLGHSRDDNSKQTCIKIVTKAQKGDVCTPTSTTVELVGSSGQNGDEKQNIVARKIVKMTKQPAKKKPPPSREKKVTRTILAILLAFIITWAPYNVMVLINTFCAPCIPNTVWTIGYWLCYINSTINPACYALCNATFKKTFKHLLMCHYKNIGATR
As to the kind of experiment: CRE-SEAP reporter gene assay, stably versus transiently expressed chimeric G proteins. The note with it: cells transiently expressing the chimera construct, 10 uM acetylcholine. It is filed as cell-based. The procedure:
The ligand-induced SEAP activity for cells stably transfected and expressing Gαs-based chimeric G proteins was compared with that of cells transiently expressing Gαs-based chimeric G proteins. Stable expression is achieved by integration of the construct of interest into the target cell's chromosome. Cell lines were prepared that stably expressed Gαs-Gαt-13, Gαs-Gαi-13, and Gαs-Gαo-13 G protein chimeras. […] Therefore, cell lines stably expressing the Gαs-based chimeric G proteins can provide enhanced sensitivity for the screening and identification of GPCR ligands.
Preparation of cells stably expressing G protein chimeras: HEK-293 cells were transfected with each of the G protein chimeras of interest. Following transfection, the cells were split and diluted in media containing 0.7 mg/ml neomycin (Gibco). Cells were grown until clones could be picked. At least 25 clones from each of the stables were picked, and tested for their suitability as sensor cell lines, by transfecting them with CRE-SEAP and cDNA encoding the M2AchR receptor. Those stables that elicited the maximal signal to noise following activation of the GPCRs were chosen and maintained. […]
(§1) Following transfection, the cells were maintained for 48 hours in 200 ul serum free media containing 10 uM acetylcholine (Sigma). […] Fluorescence was then measured using a CytoFluor 4000 multi well plate reader (Applied Biosystems).

In experiment [2] the target is T2, M2 muscarinic acetylcholine receptor (M2AchR) (Rattus norvegicus, UniProt P10980).
T2 construct: expressed in transfected cells; host or cells: HEK-293
T2 sequence (P10980 1-466): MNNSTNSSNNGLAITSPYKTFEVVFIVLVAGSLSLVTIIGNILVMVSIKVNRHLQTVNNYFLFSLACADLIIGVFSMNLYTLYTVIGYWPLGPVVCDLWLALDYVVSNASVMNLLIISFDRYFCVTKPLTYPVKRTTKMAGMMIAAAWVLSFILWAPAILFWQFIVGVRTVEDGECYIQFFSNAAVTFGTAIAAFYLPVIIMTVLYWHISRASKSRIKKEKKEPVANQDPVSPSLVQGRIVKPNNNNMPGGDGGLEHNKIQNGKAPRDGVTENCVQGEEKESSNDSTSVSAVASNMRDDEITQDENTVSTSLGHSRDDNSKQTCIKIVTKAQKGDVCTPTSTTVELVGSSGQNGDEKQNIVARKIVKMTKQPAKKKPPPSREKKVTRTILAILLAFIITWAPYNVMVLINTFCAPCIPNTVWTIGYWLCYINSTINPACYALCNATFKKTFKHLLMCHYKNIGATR
As to the kind of experiment: CRE-SEAP reporter gene assay, coupling of Gαs-based chimeric G proteins with M2AchR (transient). It is filed as cell-based. The note with it: HEK-293 cells; 10 uM acetylcholine. The procedure:
The constructs encoding chimeric G proteins were made by substituting C-terminal amino acids of Gαs (SEQ ID NO: 1) with the corresponding C-terminal amino acid sequences of other Gα subunits. A first set of Gαs-based chimeric G proteins was prepared by designing constructs encoding seven Gαs-Gαi chimeras in which the C-terminal 5, 11, 13, 28, 65, 84, or 131 amino acids of Gαs were substituted with the corresponding C-terminal amino acids from the […]. Briefly, HEK-293 cells were cotransfected with chimera constructs together with the CRE-SEAP reporter gene construct and a cDNA encoding the M2 muscarinic acetylcholine receptor (M2AchR), a GPCR that couples to Gαo but not to Gαs and inhibits cAMP production. The transfected cells were cultured in the presence or absence of acetylcholine and then assayed for SEAP activity.
A series of chimeric constructs were prepared in which the final 13 C-terminal amino acids of the Gαs subunit were substituted with the final 13 C-terminal amino acids from Gαo, Gαz, Gαt, Gαq, or Gα15 subunits. Also tested were the Gαs-Gαi-13 and a chimera containing the last 5 C-terminal amino acids of Gαk (Gαs-Gαk-5 (SEQ ID NO: 2)). These chimeric constructs were tested for coupling with M2AchR. […] The Gαs-Gαo-13 (SEQ ID NO: […]) and Gαs-Gα15-13 (SEQ ID NO: 7) allowed approximately 2-fold increases in SEAP activity.
Chimeric G protein cloning: An insert containing rat Gαs cDNA was cut out using the restriction enzymes SaII and HinDIII, and ligated into pcDNA3.1(−) cut with XhoI and HinDIII. The chimeric G proteins with the desired C-terminal amino acid substitutions were prepared by PCR using Gαs as a template. More specifically, Gαs was PCR amplified between an internal EcoRI site and the stop codon, with a 3′ HinDIII placed immediately after the stop codon. A different 3′ oligonucleotide was used for each Gαs chimera and contained a 39 bp sequence that encoded the substituted amino acids at the C-terminus selected from the donor Gα subunit.
M2AchR GPCR cloning: Rat M2AchR receptor was cloned by PCR from cDNA templates (ATCC) and ligated into pcDNA 3.1(−) for expression in mammalian cells.
CRE-SEAP Reporter Gene Assay: 0.5×10^5 HEK-293 cells (ATCC) were seeded into each well of a 96 well plate 24 hours prior to transfection. cDNAs encoding M2AchR, SEAP reporters (Mercury Pathway Profiling System, BD Biosciences), and G protein chimeras were transfected into HEK-293 cells using lipofectamine reagent (Invitrogen) according to the manufacturer's protocols. […]
as §1

B1: Gαs-Gαt-13: Gαs-based chimeric G protein, final 13 C-terminal amino acids substituted with those of Gαt (protein)
chain: MGCLGNSKTEDQRNEEKAQREANKKIEKQLQKDKQVYRATHRLLLLGAGESGKSTIVKQMRILHVNGFNGEGGEEDVPDYASNSDGEKATKVQDIKNNLKEAIETIVAAMSNLVPPVELANPENQFRVDYILSVMNVPNFDFPPEFYEHAKALWEDEGVRACYERSNEYQLIDCAQYFLDKIDVIKQADYVPSDQDLLRCRVLTSGIFETKFQVDKVNFHMFDVGGQRDERRKWIQCFNDVTAIIFVVASSSYNMVIREDNQTNRLQEALNLFKSIWNNRWLRTISVILFLNKQDLLAEKVLAGKSKIEDYFPEFARYTTPEDATPEPGEDPRVTRAKYFIRDEFLRISTASGDGRHYCYPHFTCAVDTENIRRVFNDCRDIIIKENLKDCGLF
modifications: Chimeric protein
notes: Gαs-based chimeric G protein, final 13 C-terminal amino acids substituted with those of Gαt
With B1, the “increase in SEAP activity” value in experiment [1] is given as “approximately 10 fold”. Besides, the “ligand induced increases in SEAP activity mediated by M2AchR (in words)” value in experiment [2] is given as “highest responses”.
